Measured values taken from PMC12401731.

Assays:
[1] = molecular target: HIV-1 RT p66 with TEV-cleavable N-terminal His tag (HTp66) (HIV-1); experiment: cross-linking + other: mass photometry
[2] = molecular target: HIV-1 RT p66 with TEV-cleavable N-terminal His tag (HTp66) (HIV-1); experiment: mass photometry
HTp66 K259A (HIV-1) = experiment: mass photometry

| Substance | percent of the population as dimer [1] | percent dimer at 500 nM JLJ648 [2] | percent dimer at 500 nM JLJ648 (HTp66 K259A (HIV-1)) |
| --- | --- | --- | --- |
| HIV-1 RT p66 with TEV-cleavable N-terminal His tag (HTp66) (enzyme) | 26% | 58% | – |
| HTp66 K259A (enzyme) | – | – | 52% |
